Reference: patent US20130330343A1 (AbbVie / Abbott, published 2013)

Legend:
Rat RGMa-His (rat) = target: T1, Rat RGMa-His (rat) (UniProt D4A188); test: Affinity KD (nM); (BIAcore per Example 4)
T1 sequence: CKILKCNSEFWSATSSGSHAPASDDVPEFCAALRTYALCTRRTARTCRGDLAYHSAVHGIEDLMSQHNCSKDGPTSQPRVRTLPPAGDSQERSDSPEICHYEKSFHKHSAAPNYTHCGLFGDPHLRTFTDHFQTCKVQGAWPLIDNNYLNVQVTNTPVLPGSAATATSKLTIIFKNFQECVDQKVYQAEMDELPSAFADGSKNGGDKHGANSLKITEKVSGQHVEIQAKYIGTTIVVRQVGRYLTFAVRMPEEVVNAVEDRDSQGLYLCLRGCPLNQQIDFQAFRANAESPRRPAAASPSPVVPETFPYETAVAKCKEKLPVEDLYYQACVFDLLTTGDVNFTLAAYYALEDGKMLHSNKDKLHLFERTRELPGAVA

R&D hRGMc-His = target: T2, R&D hRGMc-His (human, UniProt Q6ZVN8 36-400); test: Affinity KD (nM); (BIAcore per Example 4)
T2 construct: Bought (R&D); not shown: His tag
T2 sequence: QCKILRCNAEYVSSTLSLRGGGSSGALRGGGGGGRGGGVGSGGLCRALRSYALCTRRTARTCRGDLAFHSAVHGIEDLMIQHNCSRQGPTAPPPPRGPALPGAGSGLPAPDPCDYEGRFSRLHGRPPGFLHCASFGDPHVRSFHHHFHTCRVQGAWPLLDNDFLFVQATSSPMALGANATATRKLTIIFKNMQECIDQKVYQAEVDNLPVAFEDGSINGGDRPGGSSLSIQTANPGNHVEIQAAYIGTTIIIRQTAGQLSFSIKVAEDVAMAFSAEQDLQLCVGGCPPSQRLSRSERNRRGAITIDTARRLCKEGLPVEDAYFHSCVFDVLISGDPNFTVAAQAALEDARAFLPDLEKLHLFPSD
Description: (§1) The potency data correlates with the affinity data (see Table 5). The affinity of h5F9.23 affinity matured Abs towards human RGMa, rat RGMa, and human RGMc were determined by BIAcore analysis (Table 5). Testing Abs were captured to the surface of a CM5 chip via anti-hIgG Fc Ab, and serially diluted antigens were injected. Association and dissociation rates were monitored for 5 and 10 min respectively. Sensorgrams were fitted by global analysis using the BIAevaluation 4.0.1 software for a 1:1 Langmuir binding model. The equilibrium dissociation constants (KD) were calculated from kinetic rate constants (off rate kd and on rate ka): KD=kd/ka.

hRGMa-His = target: T3, hRGMa-His (human, UniProt Q96B86 48-422, limits assumed); test: Affinity KD (nM); (BIAcore per Example 4)
T3 construct: not shown: His tag
T3 sequence (looked up): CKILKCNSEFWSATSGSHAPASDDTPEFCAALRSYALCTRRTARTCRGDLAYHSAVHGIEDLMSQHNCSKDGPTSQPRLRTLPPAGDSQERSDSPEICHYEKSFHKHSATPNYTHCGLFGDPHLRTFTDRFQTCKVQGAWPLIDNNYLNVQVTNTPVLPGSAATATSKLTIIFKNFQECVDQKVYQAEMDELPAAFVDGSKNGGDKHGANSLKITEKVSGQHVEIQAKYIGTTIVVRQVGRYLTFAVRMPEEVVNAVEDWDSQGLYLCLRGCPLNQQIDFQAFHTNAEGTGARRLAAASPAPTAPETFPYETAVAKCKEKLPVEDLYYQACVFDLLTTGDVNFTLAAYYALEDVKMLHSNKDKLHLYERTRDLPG
Description: as §1

Rat RGMa (rat) = target: T4, Rat RGMa (rat) (UniProt D4A188); test: BIAcore; Ab captured via anti-hIgG Fc on CM5 chip, antigen injected; 1:1 Langmuir fit
T4 sequence: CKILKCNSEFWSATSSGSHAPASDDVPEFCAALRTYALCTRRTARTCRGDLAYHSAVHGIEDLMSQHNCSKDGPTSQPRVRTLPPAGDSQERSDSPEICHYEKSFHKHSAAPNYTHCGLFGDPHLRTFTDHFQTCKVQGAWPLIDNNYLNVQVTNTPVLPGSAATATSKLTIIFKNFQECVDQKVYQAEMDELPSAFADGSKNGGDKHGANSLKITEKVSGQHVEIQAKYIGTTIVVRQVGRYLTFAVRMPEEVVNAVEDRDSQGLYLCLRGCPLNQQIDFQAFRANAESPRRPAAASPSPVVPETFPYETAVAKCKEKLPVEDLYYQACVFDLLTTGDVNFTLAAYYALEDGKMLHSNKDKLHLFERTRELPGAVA

[1] = target: T5, hRGMc expressed in 293HEK cells (human, UniProt Q6ZVN8 36-400); test: cell-based or functional assay
T5 sequence: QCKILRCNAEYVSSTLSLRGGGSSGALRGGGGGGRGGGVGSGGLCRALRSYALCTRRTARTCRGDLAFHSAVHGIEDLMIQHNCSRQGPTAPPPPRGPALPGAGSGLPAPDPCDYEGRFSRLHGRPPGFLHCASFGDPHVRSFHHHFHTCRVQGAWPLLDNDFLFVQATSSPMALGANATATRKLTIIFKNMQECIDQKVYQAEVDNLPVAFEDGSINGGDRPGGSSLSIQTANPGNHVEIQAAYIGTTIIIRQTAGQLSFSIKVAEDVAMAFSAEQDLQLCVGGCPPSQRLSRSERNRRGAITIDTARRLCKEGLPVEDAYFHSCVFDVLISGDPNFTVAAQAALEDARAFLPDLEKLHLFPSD

human RGMa = target: T6, human RGMa (human, UniProt Q96B86 48-422, limits assumed); test: BIAcore; Ab captured via anti-hIgG Fc on CM5 chip, antigen injected; 1:1 Langmuir fit
T6 construct: also called hRGMa; h RGMa
T6 sequence (looked up): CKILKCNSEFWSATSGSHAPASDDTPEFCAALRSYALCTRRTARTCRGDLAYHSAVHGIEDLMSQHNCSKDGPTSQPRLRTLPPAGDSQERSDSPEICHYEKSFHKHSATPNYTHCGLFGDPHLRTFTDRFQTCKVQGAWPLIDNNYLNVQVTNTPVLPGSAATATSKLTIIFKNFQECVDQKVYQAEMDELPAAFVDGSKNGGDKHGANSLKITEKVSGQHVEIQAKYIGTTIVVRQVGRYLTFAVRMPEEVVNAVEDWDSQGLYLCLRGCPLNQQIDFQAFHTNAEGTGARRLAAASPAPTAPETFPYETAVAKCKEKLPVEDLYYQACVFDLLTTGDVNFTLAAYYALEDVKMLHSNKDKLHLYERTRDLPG
Description: as §1

human RGMc = target: T7, human RGMc (human, UniProt Q6ZVN8 36-400, limits assumed); test: as above
T7 construct: also called hRGMc
T7 sequence: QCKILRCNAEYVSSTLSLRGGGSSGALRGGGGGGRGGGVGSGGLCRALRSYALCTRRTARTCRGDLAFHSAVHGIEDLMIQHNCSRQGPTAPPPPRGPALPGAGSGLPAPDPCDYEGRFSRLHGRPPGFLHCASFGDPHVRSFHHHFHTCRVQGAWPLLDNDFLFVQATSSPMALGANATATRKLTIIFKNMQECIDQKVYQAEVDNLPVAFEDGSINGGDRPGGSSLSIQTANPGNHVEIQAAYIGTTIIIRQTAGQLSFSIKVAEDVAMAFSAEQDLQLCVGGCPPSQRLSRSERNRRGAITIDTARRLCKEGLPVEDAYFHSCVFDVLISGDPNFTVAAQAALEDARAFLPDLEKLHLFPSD
Description: as §1

[2] = target: T5, hRGMc expressed in 293HEK cells; test: cell-based or functional assay; remark: listed apart in the source

Binder	Kd (Rat RGMa-His (rat))	Kd (R&D hRGMc-His)	Kd (hRGMa-His)	Kd (Rat RGMa (rat))	koff (Rat RGMa (rat))	kon (Rat RGMa (rat))	IC50 (inhibition of RGMc-mediated BRE-luciferase activity, RLU, in 293HEK cells transfected with hRGMc) [1]	Kd (human RGMa)	koff (human RGMa)	kon (human RGMa)	Kd (human RGMc)	koff (human RGMc)	kon (human RGMc)	IC50, RGMc-mediated BMP reporter (BRE-luc) assay in 293HEK cells [2]
RGMA-h5F9Vh7a/pJP291 hIgG1/K mut (antibody, V domains shown, Tested as IgG; also called h5F9.AM4; H5F9AM.4) VH: EVQLVESGGGLVQPGGSLRLSCAASGFTFSNYGMNWIRQAPGKGLEWIGMIYYDSSEKHYADSVKGRFTISRDNSKNTLYLQMNSLRAEDTAVYYCAKGTTPDYWGQGTMVTVSS VL: DVVLTQSPLSLPVTLGQPASISCRSSQSLESSDGDTFLEWFQQRPGQSPRLLIYDVSTRFSGVPDRFSGSGSGTDFTLKISRVEAEDVGVYYCFQVTHDPVTFGQGTKLEIK	< 0.94 pM	120 pM	15 pM	< 0.94 pM	< 1e-06 s⁻¹	1.1e+06 M⁻¹ s⁻¹	310 pM	15 pM	2.2e-05 s⁻¹	1.4e+06 M⁻¹ s⁻¹	130 pM	0.00104 s⁻¹	7.85e+06 M⁻¹ s⁻¹	–
RGMA-h5F9pJP297/pJP298 hIgG1/K mut (antibody, V domains shown, Tested as IgG; also called h5F9.AM8; H5F9AM.8) VH: EVQLVESGGGLVQPGGSLRLSCAASGFTFSNYGMNWIRQAPGKGLEWIGMIYYDSSEKHYADSVKGRFTISRDNSKNTLYLQMNSLRAEDTAVYYCAKGTTPDYWGQGTMVTVSS VL: DVVLTQSPLSLPVTLGQPASISCRSSQSLEESDGYTFLHWFQQRPGQSPRLLIYEVSTRFSGVPDRFSGSGSGTDFTLKISRVEAEDVGVYYCFQATHDPLTFGQGTKLEIK	< 1.5 pM	80 pM	31 pM	< 1.5 pM	< 1e-06 s⁻¹	660000 M⁻¹ s⁻¹	380 pM	31 pM	2.7e-05 s⁻¹	870000 M⁻¹ s⁻¹	105 pM	0.00039 s⁻¹	3.95e+06 M⁻¹ s⁻¹	–
RGMA-h5F9pJP297/pJP299 hIgG1/K mut (antibody, V domains shown, Tested as IgG; also called h5F9.AM9; H5F9AM.9) VH: EVQLVESGGGVVQPGRSLRLSCAASGFTFSNYGMNWVRQAPGKGLEWVAMIYYDSSEKHYADSVKGRFTISRDNSKNTLYLQMNSLRAEDTAVYYCARGTTPDYWGQGTMVTVSS VL: DVVLTQSPLSLPVTLGQPASISCRSSQSLADSDGDTFLHWFQQRPGQSPRLLIYAVSHRFSGVPDRFSGSGSGTDFTLKISRVEAEDVGVYYCFQATHDPVTFGQGTKLEIK	310 pM	690 pM	470 pM	310 pM	0.00021 s⁻¹	680000 M⁻¹ s⁻¹	1360 pM	470 pM	0.0004 s⁻¹	860000 M⁻¹ s⁻¹	710 pM	0.0107 s⁻¹	1.55e+07 M⁻¹ s⁻¹	–
RGMA-h5F9pJP302/pJP303 hIgG1/K mut (antibody, V domains shown, Tested as IgG; also called h5F9.AM11; H5F9AM.11) VH: EVQLVESGGGLVQPGGSLRLSCAASGFTFSNYGMNWVRQAPGKGLEWVSMIYYDSSEKHYADSVKGRFTISRDNSKNTLYLQMNSLRAEDTAVYYCAKGTTPDYWGQGTMVTVSS VL: DVVLTQSPLSLPVTLGQPASISCRSSQSLEDSDGGTFLEWFQQRPGQSPRLLIYDVSSRFSGVPDRFSGSGSGTDFTLKISRVEAEDVGVYYCFQATHDPLSFGQGTKLEIK	74 pM	250 pM	110 pM	74 pM	5.2e-05 s⁻¹	700000 M⁻¹ s⁻¹	510 pM	110 pM	9.9e-05 s⁻¹	930000 M⁻¹ s⁻¹	285 pM	0.0014 s⁻¹	5.05e+06 M⁻¹ s⁻¹	–
humanized antibody 5F9.23 (antibody, V domains shown, also called h5F9.23; H5F9.23) VH: EVQLVESGGGLVQPGGSLRLSCAASGFTFSNYGMNWIRQAPGKGLEWIGMIYYDSSEKHYADSVKGRFTISRDNSKNTLYLQMNSLRAEDTAVYYCAKGTTPDYWGQGTMVTVSS VL: DVVLTQSPLSLPVTLGQPASISCRSSQSLEYSDGYTFLEWFQQRPGQSPRLLIYEVSNRFSGVPDRFSGSGSGTDFTLKISRVEAEDVGVYYCFQATHDPLTFGQGTKLEIKR	–	–	–	2100 pM	0.0017 s⁻¹	830000 M⁻¹ s⁻¹	17100 pM	3700 pM	0.0022 s⁻¹	600000 M⁻¹ s⁻¹	29000 pM	–	830000 M⁻¹ s⁻¹	17000 pM
